Source: patent US20090075297A1 (SCHERING, published 2009)
No end group written: not given here.

T1: rat GalR3 receptor (rat, UniProt O88626 1-370)
T1 construct: Full-length receptor (370 amino acids) expressed from pCR3.1 in COS-7 cells; The assay used membrane preparations of the transfected cells; also called rat type 3 galanin receptor; cellular receptors
T1 chain: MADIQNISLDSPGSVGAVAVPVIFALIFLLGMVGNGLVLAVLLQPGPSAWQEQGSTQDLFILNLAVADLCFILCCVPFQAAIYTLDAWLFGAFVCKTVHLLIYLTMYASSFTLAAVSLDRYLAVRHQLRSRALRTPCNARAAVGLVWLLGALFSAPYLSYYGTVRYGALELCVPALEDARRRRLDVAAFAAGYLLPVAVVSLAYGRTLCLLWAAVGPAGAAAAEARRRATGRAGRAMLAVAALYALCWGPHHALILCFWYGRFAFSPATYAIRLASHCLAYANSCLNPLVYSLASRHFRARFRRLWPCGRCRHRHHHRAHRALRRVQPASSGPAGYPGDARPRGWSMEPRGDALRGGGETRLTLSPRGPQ


What was measured:
rat GalR3 receptor [1] = biological target: T1, rat GalR3 receptor; assay: competition with 0.3 nM 125I-porcine galanin on membranes of COS-7 cells transfected with rat GalR3; filtration; Cheng-Prusoff
Protocol: (§1) Binding of ¹²⁵I-porcine-galanin to the membrane preparations was performed in a buffer containing 25 mM Tris-Cl (pH7.4), 1% bovine serum albumin (w/v), 0.1% bacitracin, 2 μg/ml leupeptin and 10 mM MgCl₂. Ligand saturation plots were performed using 20 μg amounts of the membrane protein in a total volume of 200 μl using 3 μM cold galanin to determine nonspecific binding. Peptide competition studies were performed in a total volume of 200 μl, containing 20 μg of membrane protein and 0.3 nM ¹²⁵I-porcine galanin. Incubations were carried out at room temperature for 1 hour and were terminated by rapid vacuum filtration through MULTISCREEN FB (glass fiber B) Filter Plates (Millipore, Bedford, Mass.) which had been pre-treated with 0.30% polyethylenimine to prevent non-specific binding of the radioligand to the filter. The filters were then washed three times with 100 μl of PBS (pH7.4). All data were analyzed using non-linear regression software (Prism, GraphPad, San Diego, Calif.), and the Ki was calculated using the method of Cheng and Prusoff [Biochem. Pharmacol. 22:3099-3108 (1973)].
The curves shown indicate the fits of the data points by nonlinear regression for one-site binding.

rat GalR3 receptor [2] = biological target: T1, rat GalR3 receptor; assay: radioligand binding to membranes of COS-7 cells transfected with rat GalR3
Protocol: as §1

Binder	Ki (rat GalR3 receptor [1]) [nM]	binding result (rat GalR3 receptor [2])
GWTLNSAGYLLGPHAIDNHRSFSDKHGLT (ligand, UniProt P10683 33-61, looked up, also called galanin itself) [rat galanin]	1.2	
WTLNSAGYLLGPHAIDNHRSFSDKHGLT (peptide, UniProt P10683 34-61, looked up, range 2-29; also called Rat galanin 92-29) [rat galanin(2-29)]	14	
TLNSAGYLLGPHAIDNHRSFSDKHGLT (peptide, UniProt P10683 35-61, looked up, range 3-29) [rat galanin(3-29)]	> 1000	
LLGPHAIDNHR [galanin(10-20)]	> 1000	
GWTLNSAGYLLGPHAIDNHRSFHDKYGLA (ligand, UniProt P07480 33-61, looked up, ends and bridges not checked; also: 125I radiolabel, residue not given here, Bought radioligand; also called labeled galanin) [125I-porcine galanin]		binds
